These results are taken from publication PMC11151092 (Molecular Biology of the Cell, 2024).

The labels stand for the following.
B4: 3Q-SNARE complex (QaQbQc) on proteoliposomes (complex)
chain 1: MSFFDIEAQSSKGNSQQEPQFSTNQKTKELSNLIETFAEQSRVLEKECTKIGSKRDSKELRYKIETELIPNCTSVRDKIESNILIHQNGKLSADFKNLKTKYQSLQQSYNQRKSLFPLKTPISPGTSKERKDIHPRTEAVRQDPESSYISIKVNEQSPLLHNEGQHQLQLQEEQEQQQQGLSQEELDFQTIIHQERSQQIGRIHTAVQEVNAIFHQLGSLVKEQGEQVTTIDENISHLHDNMQNANKQLTRADQHQRDRNKCGKVTLIIIIVVCMVVLLAVLS
chain 2: MSSLLISYESDFKTTLEQAKASLAEAPSQPLSQRNTTLKHVEQQQDELFDLLDQMDVEVNNSIGDASERATYKAKLREWKKTIQSDIKRPLQSLVDSGDRDRLFGDLNASNIDDDQRQQLLSNHAILQKSGDRLKDASRIANETEGIGSQIMMDLRSQRETLENARQTLFQADSYVDKSIKTLKTMTRRLVANKFISYAIIAVLILLILLVLFSKFK
chain 3: MAANSVGKMSEKLRIKVDDVKINPKYVLYGVSTPNKRLYKRYSEFWKLKTRLERDVGSTIPYDFPEKPGVLDRRWQRRYDDPEMIDERRIGLERFLNELYNDRFDSRWRDTKIAQDFLQLSKPNVSQEKSQQHLETADEVGWDEMIRDIKLDLDKESDGTPSVRGALRARTKLHKLRERLEQDVQKKSLPSTEVTRRAALLRSLLKECDDIGTANIAQDRGRLLGVATSDNSSTTEVQGRTNNDLQQGQMQMVRDQEQELVALHRIIQAQRGLALEMNEELQTQNELLTALEDDVDNTGRRLQIANKKARHFNNSA

For assay [1], the target named is four-SNARE bundle with GST-Qa (GST-Qa, R, Qb, Qc) in detergent (S. cerevisiae, UniProt Q12241;Q12255;Q04338;P32912). In words: pull-down.
Assay [2] concerns the target B4. Put plainly: proteoliposome floatation.
Assay [3] addresses 4-SNARE complex (R, Qa, Qb, Qc) on proteoliposomes (S. cerevisiae, UniProt Q12255;Q12241;Q04338;P32912). In words: proteoliposome floatation.
The target of assay [4] is HOPS (homotypic fusion and vacuole protein sorting complex) (S. cerevisiae, UniProt P12868;Q03308;P27801;P20795;Q07468;P38959). Put plainly: proteoliposome floatation.
Assay [5] deals with T1, Qa-SNARE Vam3 in proteoliposomes (S. cerevisiae, UniProt Q12241 1-283).
T1 sequence: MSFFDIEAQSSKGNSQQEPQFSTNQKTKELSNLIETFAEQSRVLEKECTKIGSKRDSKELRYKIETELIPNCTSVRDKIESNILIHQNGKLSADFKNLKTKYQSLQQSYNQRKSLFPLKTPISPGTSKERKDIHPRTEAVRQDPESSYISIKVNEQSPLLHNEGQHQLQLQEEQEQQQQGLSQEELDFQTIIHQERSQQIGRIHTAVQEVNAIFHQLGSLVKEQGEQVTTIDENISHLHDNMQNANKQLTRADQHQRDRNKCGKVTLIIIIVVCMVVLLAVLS
In words: co-IP.

B1: Sec18 (enzyme)
chain: MFKIPGFGKAAANHTPPDMTNMDTRTRHLKVSNCPNNSYALANVAAVSPNDFPNNIYIIIDNLFVFTTRHSNDIPPGTIGFNGNQRTWGGWSLNQDVQAKAFDLFKYSGKQSYLGSIDIDISFRARGKAVSTVFDQDELAKQFVRCYESQIFSPTQYLIMEFQGHFFDLKIRNVQAIDLGDIEPTSAVATGIETKGILTKQTQINFFKGRDGLVNLKSSNSLRPRSNAVIRPDFKFEDLGVGGLDKEFTKIFRRAFASRIFPPSVIEKLGISHVKGLLLYGPPGTGKTLIARKIGTMLNAKEPKIVNGPEILSKYVGSSEENIRNLFKDAEAEYRAKGEESSLHIIIFDELDSVFKQRGSRGDGTGVGDNVVNQLLAKMDGVDQLNNILVIGMTNRKDLIDSALLRPGRFEVQVEIHLPDEKGRLQIFDIQTKKMRENNMMSDDVNLAELAALTKNFSGAEIEGLVKSASSFAINKTVNIGKGATKLNTKDIAKLKVTREDFLNALNDVTPAFGISEEDLKTCVEGGMMLYSERVNSILKNGARYVRQVRESDKSRLVSLLIHGPAGSGKTALAAEIALKSGFPFIRLISPNELSGMSESAKIAYIDNTFRDAYKSPLNILVIDSLETLVDWVPIGPRFSNNILQMLKVALKRKPPQDRRLLIMTTTSAYSVLQQMDILSCFDNEIAVPNMTNLDELNNVMIESNFLDDAGRVKVINELSRSCPNFNVGIKKTLTNIETARHDEDPVNELVELMTQSA
Take B1: the binding result in assay [1], in assay [2], in assay [3] and in assay [4] was “binds” in each case.

B2: R-SNARE Nyv1 (natural protein)
chain: MKRFNVSYVEVIKNGETISSCFQPFQKNENYGTITSANEQITPVIFHNLIMDMVLPKVVPIKGNKVTKMSMNLIDGFDCFYSTDDHDPKTVYVCFTLVDMPKILPIRILSGLQEYESNATNELLSSHVGQILDSFHEELVEYRNQTLNSSGNGQSSNGNGQNTISDIGDATEDQIKDVIQIMNDNIDKFLERQERVSLLVDKTSQLNSSSNKFRRKAVNIKEIMWWQKVKNITLLTFTIILFVSAAFMFFYLW
B2: the binding result in assay [5] and in assay [4] was “binds” each time.

B3: Sec17 (natural protein)
chain: MSDPVELLKRAEKKGVPSSGFMKLFSGSDSYKFEEAADLCVQAATIYRLRKELNLAGDSFLKAADYQKKAGNEDEAGNTYVEAYKCFKSGGNSVNAVDSLENAIQIFTHRGQFRRGANFKFELGEILENDLHDYAKAIDCYELAGEWYAQDQSVALSNKCFIKCADLKALDGQYIEASDIYSKLIKSSMGNRLSQWSLKDYFLKKGLCQLAATDAVAAARTLQEGQSEDPNFADSRESNFLKSLIDAVNEGDSEQLSEHCKEFDNFMRLDKWKITILNKIKESIQQQEDDLL
As for B3, the binding result in assay [1] is recorded as “binds”.

For B4, the binding result in assay [4] is reported as “binds”.
